Source: the supplement of paper PMC12042874
± gives the uncertainty stated by the source.

test: amyloid nucleation score (Sup35N fusion, yeast selection) (log enrichment); library NNK3; higher = more nucleation; inactive = no reads after selection
Procedure, shortened: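 Three technical output replicates were used for random libraries. Psi-negative yeast expressing peptides of 20 random codons fused to Sup35N were induced with 100 μM copper sulfate for 24 hours and grown 7 days at 30°C on medium lacking adenine and uracil, and input and output plasmid inserts were Illumina-sequenced, excluding sequences with under 100 input reads. The nucleation score is the DiMSum log enrichment of output over input reads, centred on the mode score of non-aggregating sequences.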

Substance | amyloid nucleation score
IYYIDL | inactive
QNGDKHYG | inactive
YGFAVRLCCPSLNVFLTELL | 0.612 ± 0.15
SVERILLYGRCCFVRRA | 0.403 ± 0.2
MLDRCD | inactive
NWDRTIMCMYY | 2.08 ± 0.075
REYSEA | inactive
YWFSQFVIFGCSS | inactive
GKSIKGYGHSVFTVVLTVGY | inactive
FIAFWCVNLRTL | inactive
TGSDAYSMRMPRQPPISFVV | inactive
VVLVFLRVTRYPSQKMVSAL | inactive
GIYCMSVSWFNVDLDTTGNT | inactive
NSCQGE | inactive
TYLGDSFSILHLIQGDWFIE | inactive
SAFNEFFF | inactive
VRSQGLHRRVFFIATGIKLG | inactive
IYVARSGARGRGSWSLCKIC | 0.629 ± 0.28
RIMLVYCMGSRGIAMFCQHN | inactive
RRGNDRKRLWAVNLDTGNFL | inactive
IYRLKDRLDDLVSHVDICVV | inactive
RRALYKLSSKESWPVDCNSV | inactive
RLLRVGFMLRFLIMIRRVRF | -0.365 ± 1
TVRFEGIGSHVRHTFCALDF | inactive

Substance | amyloid nucleation score
QHTGGVLRRTMFINRVSRRM | inactive
HNNIAFSLVVNDESVLWCFN | 1.97 ± 0.053
GSATVMIWQR | inactive
WELSRYVRGLLFEFTLCLFV | inactive
YIMSNLFGGNNLFGG | inactive
TQFTLCTIHSVLCVNA | 2.06 ± 0.078
AKVQWAV | -0.106 ± 0.43
RKNLWLVTTGNSARDMLSKM | inactive
TLVGYLIARLFWR | inactive
LQVVNLSR | inactive
LFNSRMCMPRFASASNLACL | inactive
RLVWGCCLLDTCVVEQGSGV | 2.78 ± 0.076
FKLHCSDRYECTKDLSHLWC | inactive
MVKDCITRVYFVVWFDYSRS | inactive
QHSSLKWYLYDYRFLLYTVL | -0.562 ± 0.5
CPTVMAYGKTGG | 0.934 ± 0.21
GITIWLYNPYFL | inactive
QKNFLGNF | inactive
VGGFKTILSIRRAAKCLCVG | inactive
YRSEGSWHDDSQSKKWWSGV | inactive
DLITSRSVLFVIVVL | inactive
ASGVPIADYTNTLKRWWLSE | inactive
HNKAETTPLSHCMQSSSKLL | inactive
SLAVGLLNCLL | 2.17 ± 0.075

Substance | amyloid nucleation score
NFNCSANWYHLSLLTMNHEV | inactive
RSFVVNYWGFSDMLHFCRLC | inactive
LESINTLLNYVYYFNLVN | inactive
RRFKYIGLRGTMHRLNYFGL | inactive
MLCFKPKPVRARNPGNILSH | inactive
GNFAM | inactive
HELLMVSENVRCDAKSHG | inactive
SAFTFPTLWIFTNPTVHLLF | inactive
LCNWRAVDCDD | -0.151 ± 0.59
MKYRTALHTF | -0.961 ± 1.9
DDAKFVWYVNINYRYMDSRS | 2.16 ± 0.065
SNIGVGKTYHRCTFFFWLIC | 0.989 ± 0.24
SSSLVRCHG | inactive
DIFVNAV | inactive
LLDKVLSEPKTSQDRSENVA | -0.696 ± 1.1
KRCIYKSNGI | inactive
PNLYIMYGAFKIVLHSPDWG | inactive
GSLPFLSYLGRVKCGERRSS | inactive
IPYDSSLLNSSNVCYLI | inactive
HGCWKQPDQVVLLWSHRFFR | inactive
FVASHLVVAKGVKASVRKFY | 1.31 ± 0.089
PVQRTLVRAVSESFR | 0.899 ± 0.13
WLHTCRGSMDW | inactive
SRYIRGTLCRAVSVNRPHVH | inactive

Substance | amyloid nucleation score
LMKMKRFLQLWTIGDGASKS | 1.81 ± 0.09
QYSYSPGCRYLKVMLSNNSE | inactive
NIYYLCSFLSWLTMG | 2.36 ± 0.049
DCIRIYQWASLSL | inactive
VLRSAYAALFLNRFSRFDCR | inactive
VRDFGLPTWAQLAWMYNANG | -0.229 ± 1.1
NYDVPSDLRWEMLWVAYCRR | inactive
ANSDCLFARFDRLFDVSVED | -0.295 ± 0.71
VTVRKFMVSLWSGGPTWDGR | inactive
FFVLYRLRELPPAQLMMKAA | inactive
HKMRRAYLKECFVWDYVSCD | inactive
ADGWFEIFKGYSAPGAHSVL | -0.48 ± 1.1
AGLLDMARSVDCSGLGYGFF | -0.82 ± 1
FNETFYGKVGDILISLCRVL | inactive
CQVSCFNLVSIKSWDKIAGS | 2.52 ± 0.06
VAETYLRTA | inactive
LLLYLN | inactive
VFVTRYKTKTPCLMTVRKEL | inactive
CADFFQDCAHKIFKNNRITG | inactive
TGYHGHTPFSYDQYEFHLRV | inactive
EFQNFLVSFYEMYLQSPK | inactive
PFCVMDLSIKWGNMYYFLQT | inactive
RCYVRFSRSRVVHIMLVYMP | inactive
FILIYDRYRGF | 1.26 ± 0.095

Substance | amyloid nucleation score
MAFRETRWNFLLNKV | inactive
WLMRARGYGNVRSPVVFGKL | inactive
SYYTYVFTIVTPRKTNLWSG | 0.64 ± 0.28
SFLIDPTHGLYSLRFFIFCW | inactive
NKSWWKYVPIDDGELYMRAV | inactive
FLVRRGCP | inactive
SSCMAFIMGWKYITMD | inactive
TVVMWSSKDREVDSIDMSFV | inactive
FYSLNSFSFYASRVITDNRV | 1.09 ± 0.13
VSNLGCCKALSCGMSYRVCW | inactive
LWSSDVEFLYGCASSCDFMG | inactive
LFMKRLFLSWFSMVVICGAP | 0.362 ± 0.71
SHNSHGYFLSVLVVMRMSGR | inactive
RVKSKDANSGGSMVCASRVL | inactive
RSLYWIWWDDSKSNE | inactive
SRDFKIGCWLKIRSVIDPVW | inactive
FESMGFHPRSVIYEYVCELN | inactive
IMVCKWTSPTSTMPHDDLGC | inactive
CQRYQALSNCPYSATWGSDT | inactive
WLGMCPLLTVVLTGIFLTPF | 0.487 ± 0.2
TRSVFIHVYW | 0.095 ± 0.5
GLRVTH | inactive
